Laboratory results published in IntAct's records for PubMed 16739988.

B1: Gem-associated protein 5 (Homo sapiens), Q8TEQ6 (parent)
chain: MGQEPRTLPPSPNWYCARCSDAVPGGLFGFAARTSVFLVRVGPGAGESPGTPPFRVIGELVGHTERVSGFTFSHHPGQYNLCATSSDDGTVKIWDVETKTVVTEHALHQHTISTLHWSPRVKDLIVSGDEKGVVFCYWFNRNDSQHLFIEPRTIFCLTCSPHHEDLVAIGYKDGIVVIIDISKKGEVIHRLRGHDDEIHSIAWCPLPGEDCLSINQEETSEEAEITNGNAVAQAPVTKGCYLATGSKDQTIRIWSCSRGRGVMILKLPFLKRRGGGIDPTVKERLWLTLHWPSNQPTQLVSSCFGGELLQWDLTQSWRRKYTLFSASSEGQNHSRIVFNLCPLQTEDDKQLLLSTSMDRDVKCWDIATLECSWTLPSLGGFAYSLAFSSVDIGSLAIGVGDGMIRVWNTLSIKNNYDVKNFWQGVKSKVTALCWHPTKEGCLAFGTDDGKVGLYDTYSNKPPQISSTYHKKTVYTLAWGPPVPPMSLGGEGDRPSLALYSCGGEGIVLQHNPWKLSGEAFDINKLIRDTNSIKYKLPVHTEISWKADGKIMALGNEDGSIEIFQIPNLKLICTIQQHHKLVNTISWHHEHGSQPELSYLMASGSNNAVIYVHNLKTVIESSPESPVTITEPYRTLSGHTAKITSVAWSPHHDGRLVSASYDGTAQVWDALREEPLCNFRGHRGRLLCVAWSPLDPDCIYSGADDFCVHKWLTSMQDHSRPPQGKKSIELEKKRLSQPKAKPKKKKKPTLRTPVKLESIDGNEEESMKENSGPVENGVSDQEGEEQAREPELPCGLAPAVSREPVICTPVSSGFEKSKVTINNKVILLKKEPPKEKPETLIKKRKARSLLPLSTSLDHRSKEELHQDCLVLATAKHSRELNEDVSADVEERFHLGLFTDRATLYRMIDIEGKGHLENGHPELFHQLMLWKGDLKGVLQTAAERGELTDNLVAMAPAAGYHVWLWAVEAFAKQLCFQDQYVKAASHLLSIHKVYEAVELLKSNHFYREAIAIAKARLRPEDPVLKDLYLSWGTVLERDGHYAVAAKCYLGATCAYDAAKVLAKKGDAASLRTAAELAAIVGEDELSASLALRCAQELLLANNWVGAQEALQLHESLQGQRLVFCLLELLSRHLEEKQLSEGKSSSSYHTWNTGTEGPFVERVTAVWKSIFSLDTPEQYQEAFQKLQNIKYPSATNNTPAKQLLLHICHDLTLAVLSQQMASWDEAVQALLRAVVRSYDSGSFTIMQEVYSAFLPDGCDHLRDKLGDHQSPATPAFKSLEAFFLYGRLYEFWWSLSRPCPNSSVWVRAGHRTLSVEPSQQLDTASTEETDPETSQPEPNRPSELDLRLTEEGERMLSTFKELFSEKHASLQNSQRTVAEVQETLAEMIRQHQKSQLCKSTANGPDKNEPEVEAEQPLCSSQSQCKEEKNEPLSLPELTKRLTEANQRMAKFPESIKAWPFPDVLECCLVLLLIRSHFPGCLAQEMQQQAQELLQKYGNTKTYRRHCQTFCM

Variants of: B1
Conditions: with if4e_human EIF4E

| Variant | effect of a mutation on the interaction |
| --- | --- |
| L997A;L998A | decreasing interaction |
| Y992A | decreasing interaction |
| L270A;K271A | decreasing interaction |
| L265A | decreasing interaction |
